Experimental findings from paper PMC5467742 (Cell, 2017) are described below.

Data set [1] deals with T1, MlaA with C-terminal 6xHis tag (E. coli, UniProt P76506 18-251).
T1 sequence (looked up): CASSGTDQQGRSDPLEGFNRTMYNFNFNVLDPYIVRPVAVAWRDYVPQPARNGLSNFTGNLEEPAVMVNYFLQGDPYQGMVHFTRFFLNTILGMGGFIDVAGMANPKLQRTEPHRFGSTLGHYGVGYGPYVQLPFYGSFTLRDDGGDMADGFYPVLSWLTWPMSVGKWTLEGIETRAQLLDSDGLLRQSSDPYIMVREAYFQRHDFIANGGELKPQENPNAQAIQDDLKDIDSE
The experiment in a line: affinity purification with mass spectrometry.

Data set [2] concerns the molecule itself. The experiment in a line: crystal structure.
Data set [3] concerns the molecule itself. The experiment in a line: negative-stain EM.
In data set [4] the target is T2, MlaE (E. coli, UniProt P64606 1-260).
T2 sequence (looked up): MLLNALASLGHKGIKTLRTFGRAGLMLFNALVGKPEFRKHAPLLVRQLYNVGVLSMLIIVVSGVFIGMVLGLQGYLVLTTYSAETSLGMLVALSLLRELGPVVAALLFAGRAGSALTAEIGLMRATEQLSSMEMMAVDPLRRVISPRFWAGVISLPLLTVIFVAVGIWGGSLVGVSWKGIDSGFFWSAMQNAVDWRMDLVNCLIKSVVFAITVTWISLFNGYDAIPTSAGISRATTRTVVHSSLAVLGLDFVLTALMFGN
Briefly: affinity purification with mass spectrometry.

Data set [5] deals with the molecule itself. Briefly: cryo-EM structure.

Several values for one entry are separate records, joined by “and”; a condition that tells them apart may be missing. Identical values can stand only once.

B1: OmpF (natural protein, E. coli (endogenous in Rosetta 2 (DE3)), UniProt P02931 23-362, looked up)
chain: AEIYNKDGNKVDLYGKAVGLHYFSKGNGENSYGGNGDMTYARLGFKGETQINSDLTGYGQWEYNFQGNNSEGADAQTGNKTRLAFAGLKYADVGSFDYGRNYGVVYDALGYTDMLPEFGGDTAYSDDFFVGRVGGVATYRNSNFFGLVDGLNFAVQYLGKNERDTARRSNGDGVGGSISYEYEGFGIVGAYGAADRTNLQEAQPLGNGKKAEQWATGLKYDANNIYLAANYGETRNATPITNKFTNTSGFANKTQDVLLVAQYQFDFGLRPSIAYTKSKAKDVEGIGDVDLVNYFEVGATYYFNKNMSTYVDYIINQIDSDNKLGVGSDDTVAVGIVYQF
B1: the “stoichiometry N” value in data set [1] was roughly 1.

B2: MlaD core MCE domain (residues 32-140) (domain or fragment, E. coli, UniProt P64604 32-140, looked up)
chain: TSIRTEPTYTLYATFDNIGGLKARSPVSIGGVVVGRVADITLDPKTYLPRVTLEIEQRYNHIPDTSSLSIRTSGLLGEQYLALNVGFEDPELGTAILKDGDTIQDTKSA
With B2, the “stoichiometry N” value in data set [2] was 7 and 14.

B3: YebT, full length, C-terminal 6xHis tag (natural protein, E. coli, UniProt P76272 1-877, looked up)
chain: MSQETPASTTEAQIKNKRRISPFWLLPFIALMIASWLIWDSYQDRGNTVTIDFMSADGIVPGRTPVRYQGVEVGTVQDISLSDDLRKIEVKVSIKSDMKDALREETQFWLVTPKASLAGVSGLDALVGGNYIGMMPGKGKEQDHFVALDTQPKYRLDNGDLMIHLQAPDLGSLNSGSLVYFRKIPVGKVYDYAINPNKQGVVIDVLIERRFTDLVKKGSRFWNVSGVDANVSISGAKVKLESLAALVNGAIAFDSPEESKPAEAEDTFGLYEDLAHSQRGVIIKLELPSGAGLTADSTPLMYQGLEVGQLTKLDLNPGGKVTGEMTVDPSVVTLLRENTRIELRNPKLSLSDANLSALLTGKTFELVPGDGEPRKEFVVVPGEKALLHEPDVLTLTLTAPESYGIDAGQPLILHGVQVGQVIDRKLTSKGVTFTVAIEPQHRELVKGDSKFVVNSRVDVKVGLDGVEFLGASASEWINGGIRILPGDKGEMKASYPLYANLEKALENSLSDLPTTTVSLSAETLPDVQAGSVVLYRKFEVGEVITVRPRANAFDIDLHIKPEYRNLLTSNSVFWAEGGAKVQLNGSGLTVQASPLSRALKGAISFDNLSGASASQRKGDKRILYASETAARAVGGQITLHAFDAGKLAVGMPIRYLGIDIGQIQTLDLITARNEVQAKAVLYPEYVQTFARGGTRFSVVTPQISAAGVEHLDTILQPYINVEPGRGNPRRDFELQEATITDSRYLDGLSIIVEAPEAGSLGIGTPVLFRGLEVGTVTGMTLGTLSDRVMIAMRISKRYQHLVRNNSVFWLASGYSLDFGLTGGVVKTGTFNQFIRGGIAFATPPGTPLAPKAQEGKHFLLQESEPKEWREWGTALPK
Turning to B3, the “stoichiometry N” value in data set [3] was 6.

B4: His-tagged MlaD, co-expressed from the mlaFEDCB operon (natural protein, E. coli, UniProt P64604 1-183, looked up)
chain: MQTKKNEIWVGIFLLAALLAALFVCLKAANVTSIRTEPTYTLYATFDNIGGLKARSPVSIGGVVVGRVADITLDPKTYLPRVTLEIEQRYNHIPDTSSLSIRTSGLLGEQYLALNVGFEDPELGTAILKDGDTIQDTKSAMVLEDLIGQFLYGSKGDDNKNSGDAPAAAPGNNETTEPVGTTK
For the molecule B4, the binding result in data set [4] is “binds”.

B5: PqiB periplasmic domain (residues 39-546) (domain or fragment, E. coli, UniProt P43671 39-546, looked up)
chain: SHQGPEVTLITANAEGIEGGKTTIKSRSVDVGVVESATLADDLTHVEIKARLNSGMEKLLHKDTVFWVVKPQIGREGISGLGTLLSGVYIELQPGAKGSKMDKYDLLDSPPLAPPDAKGIRVILDSKKAGQLSPGDPVLFRGYRVGSVETSTFDTQKRNISYQLFINAPYDRLVTNNVRFWKDSGIAVDLTSAGMRVEMGSLTTLLSGGVSFDVPEGLDLGQPVAPKTAFVLYDDQKSIQDSLYTDHIDYLMFFKDSVRGLQPGAPVEFRGIRLGTVSKVPFFAPNMRQTFNDDYRIPVLIRIEPERLKMQLGENADVVEHLGELLKRGLRGSLKTGNLVTGALYVDLDFYPNTPAITGIREFNGYQIIPTVSGGLAQIQQRLMEALDKINKLPLNPMIEQATSTLSESQRTMKNLQTTLDSMNKILASQSMQQLPTDMQSTLRELNRSMQGFQPGSAAYNKMVADMQRLDQVLRELQPVLKTLNEKSNALVFEAKDKKDPEPKRAKQ
With B5, the “stoichiometry N” value in data set [5] was determined as 6.
